The results in this text go back to publication PMC12302338, “Functional genomics and structural insights into maize aldo-keto reductase-4 family: Stress metabolism and substrate specificity in embryos” (The Journal of Biological Chemistry, 2025).

Holding throughout (test): purified protein
Common to all, as to settings: 0.25 mM NADPH, 50 mM sodium phosphate pH 7.0, 30 °C, reduction

Substrate in series [1]: CC(=O)C=O
The format is biochemical, Zea mays.

Substrate in series [2]: O=Cc1ccc([N+](=O)[O-])cc1
The class given is biochemical, Zea mays.

Substrate in series [3]: O=CC(O)CO

B1: ZmAKR4C13 (Zea mays) (protein)
chain: MASAQAVGQGERGHFVLKSGHTIPAVGLGTWRAGSDTAHSVRTAIAEAGYRHVDTAAQYGVEKEVGRGLKAAMEGGINRKDLFVTSKLWCTELAPDRVRPALEKTLKDLQLDYLDLYLIHWPFRLKDGAHMPPEAGEVLEFDMEGVWREMEGLVKDGLVKDIGVCNYTVAKLNRLMRSANVPPAVCQMEMHPGWKNDRIFEACKKHGIHVTAYSPLGSSEKNLAHDPLVEKVANKLDKTPGQVLLRWALQRGTSVIPKSTRDERIKENIQVFGWEIPEEDFRALCGIKDEKRVLTGEELFVNKTHGPYKSATEVWDHED
notes: monomer
Turning to B1, the figures for the Michaelis-Menten constant (Km) in “purified protein [1]”, in “purified protein [2]” and in “purified protein [3]” were 0.94 ± 0.08 mM, 0.10 ± 0.02 mM and 1.46 ± 0.29 mM, respectively. The kcat worked out at 2.21 s⁻¹ in the series “purified protein [1]”, 0.65 s⁻¹ in the series “purified protein [2]” and 18 s⁻¹ in the series “purified protein [3]”. Also, the figures for the specificity constant (kcat/Km) in “purified protein [1]”, in “purified protein [2]” and in the series “purified protein [3]” were 2350 M⁻¹ s⁻¹, 6510 M⁻¹ s⁻¹ and 12400 M⁻¹ s⁻¹, respectively.
